Measurements from paper PMC6192639, “Generation and characterization of monoclonal antibodies that recognize human and murine supervillin protein isoforms” (PLoS ONE, 2018).

T1: h340 linear peptide IENQRRGQELSATRQ (Homo sapiens)
T1 construct: 15-residue peptide of human supervillin h340; numbers count on: hSV1; spot on a peptide microarray; source: printed peptide microarray (PEPperPRINT)
T1 chain: IENQRRGQELSATRQ

T2: h340 linear peptide ELSATRQAHDLSPAA (Homo sapiens)
T2 construct: 15-residue peptide of human supervillin h340; numbers count on: hSV1; spot on a peptide microarray; source: printed peptide microarray (PEPperPRINT)
T2 chain: ELSATRQAHDLSPAA


Experiments:
[1] = target: T3, endogenous human supervillin splice-form 4 (SV4) (human (endogenous in U2OS)); assay: immunoblot; cell extracts (HeLa; U2OS with control or SVIL-specific dsRNA; mouse embryonic fibroblasts) on 5-15% SDS gels, nitrocellulose strips probed with hybridoma supernatants diluted 1:500; conditions: partners not purified
T3 construct: also called hSV4; source: endogenous, U2OS lysate

[2] = target: T1, h340 linear peptide IENQRRGQELSATRQ; assay: peptide or protein array; PEPperPRINT microarray of linear 15-residue h340 peptides (overlap 13), hybridoma supernatants diluted 1:10 and 1:1, 16 h at 4 C, anti-mouse IgG DyLight680; conditions: one partner purified
[3] = target: T2, h340 linear peptide ELSATRQAHDLSPAA; assay: as above; conditions: one partner purified
[4] = target: T4, human supervillin N-terminus, first 340 amino acids (h340) (Homo sapiens, UniProt O95425-2); assay: BLI; Octet RED96e, 30 C, PBS-T; by the methods antibody coupled to AR2G sensors and h340 at about 2, 4, 8 and 16 nM, by the legend of Fig 3 surface-bound h340 and antibody in solution; 2:1 interaction model, global fit; KD as off-rate/on-rate; conditions: both partners purified
T4 construct: supervillin, human, first 340 amino acids of splice-form 1 (SV1); numbers count on: hSV1 (the ~205-kDa splice-form, not archvillin); also called h340 immunogen; h340 antigen; source: E. coli Rosetta2(DE3)pLysS, purified (glutathione-Sepharose 4B), cleaved from GST-h340 with PreScission Protease
T4 sequence (O95425 other isoform, or with tags, fused parts or gaps): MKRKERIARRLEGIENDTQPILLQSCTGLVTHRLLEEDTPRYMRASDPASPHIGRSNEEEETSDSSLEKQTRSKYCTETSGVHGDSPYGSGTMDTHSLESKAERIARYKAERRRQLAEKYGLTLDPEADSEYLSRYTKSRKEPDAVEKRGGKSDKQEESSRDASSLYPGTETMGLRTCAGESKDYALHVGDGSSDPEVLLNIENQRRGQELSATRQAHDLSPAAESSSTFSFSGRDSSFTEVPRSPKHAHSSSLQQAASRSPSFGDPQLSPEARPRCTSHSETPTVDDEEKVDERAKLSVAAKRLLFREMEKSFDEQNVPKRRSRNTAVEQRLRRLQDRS

[5] = target: T5, Flag-tagged human supervillin splice-form 4 (Flag-hSV4) (Homo sapiens, UniProt O95425-4, strain); assay: immunostaining of cells or tissue; immunofluorescence, cells fixed with 4% PFA (in CSK buffer, CSK-PFA), Triton X-100; purified antibody 100 ug/ml; overexpressed tagged supervillins in RH30 cells, or endogenous supervillin in U2OS cells on fibronectin; conditions: one partner purified
T5 construct: source: RH30 cells, transfected, fixed
T5 sequence (O95425 whole entry, looked up, stated change not applied, canonical isoform): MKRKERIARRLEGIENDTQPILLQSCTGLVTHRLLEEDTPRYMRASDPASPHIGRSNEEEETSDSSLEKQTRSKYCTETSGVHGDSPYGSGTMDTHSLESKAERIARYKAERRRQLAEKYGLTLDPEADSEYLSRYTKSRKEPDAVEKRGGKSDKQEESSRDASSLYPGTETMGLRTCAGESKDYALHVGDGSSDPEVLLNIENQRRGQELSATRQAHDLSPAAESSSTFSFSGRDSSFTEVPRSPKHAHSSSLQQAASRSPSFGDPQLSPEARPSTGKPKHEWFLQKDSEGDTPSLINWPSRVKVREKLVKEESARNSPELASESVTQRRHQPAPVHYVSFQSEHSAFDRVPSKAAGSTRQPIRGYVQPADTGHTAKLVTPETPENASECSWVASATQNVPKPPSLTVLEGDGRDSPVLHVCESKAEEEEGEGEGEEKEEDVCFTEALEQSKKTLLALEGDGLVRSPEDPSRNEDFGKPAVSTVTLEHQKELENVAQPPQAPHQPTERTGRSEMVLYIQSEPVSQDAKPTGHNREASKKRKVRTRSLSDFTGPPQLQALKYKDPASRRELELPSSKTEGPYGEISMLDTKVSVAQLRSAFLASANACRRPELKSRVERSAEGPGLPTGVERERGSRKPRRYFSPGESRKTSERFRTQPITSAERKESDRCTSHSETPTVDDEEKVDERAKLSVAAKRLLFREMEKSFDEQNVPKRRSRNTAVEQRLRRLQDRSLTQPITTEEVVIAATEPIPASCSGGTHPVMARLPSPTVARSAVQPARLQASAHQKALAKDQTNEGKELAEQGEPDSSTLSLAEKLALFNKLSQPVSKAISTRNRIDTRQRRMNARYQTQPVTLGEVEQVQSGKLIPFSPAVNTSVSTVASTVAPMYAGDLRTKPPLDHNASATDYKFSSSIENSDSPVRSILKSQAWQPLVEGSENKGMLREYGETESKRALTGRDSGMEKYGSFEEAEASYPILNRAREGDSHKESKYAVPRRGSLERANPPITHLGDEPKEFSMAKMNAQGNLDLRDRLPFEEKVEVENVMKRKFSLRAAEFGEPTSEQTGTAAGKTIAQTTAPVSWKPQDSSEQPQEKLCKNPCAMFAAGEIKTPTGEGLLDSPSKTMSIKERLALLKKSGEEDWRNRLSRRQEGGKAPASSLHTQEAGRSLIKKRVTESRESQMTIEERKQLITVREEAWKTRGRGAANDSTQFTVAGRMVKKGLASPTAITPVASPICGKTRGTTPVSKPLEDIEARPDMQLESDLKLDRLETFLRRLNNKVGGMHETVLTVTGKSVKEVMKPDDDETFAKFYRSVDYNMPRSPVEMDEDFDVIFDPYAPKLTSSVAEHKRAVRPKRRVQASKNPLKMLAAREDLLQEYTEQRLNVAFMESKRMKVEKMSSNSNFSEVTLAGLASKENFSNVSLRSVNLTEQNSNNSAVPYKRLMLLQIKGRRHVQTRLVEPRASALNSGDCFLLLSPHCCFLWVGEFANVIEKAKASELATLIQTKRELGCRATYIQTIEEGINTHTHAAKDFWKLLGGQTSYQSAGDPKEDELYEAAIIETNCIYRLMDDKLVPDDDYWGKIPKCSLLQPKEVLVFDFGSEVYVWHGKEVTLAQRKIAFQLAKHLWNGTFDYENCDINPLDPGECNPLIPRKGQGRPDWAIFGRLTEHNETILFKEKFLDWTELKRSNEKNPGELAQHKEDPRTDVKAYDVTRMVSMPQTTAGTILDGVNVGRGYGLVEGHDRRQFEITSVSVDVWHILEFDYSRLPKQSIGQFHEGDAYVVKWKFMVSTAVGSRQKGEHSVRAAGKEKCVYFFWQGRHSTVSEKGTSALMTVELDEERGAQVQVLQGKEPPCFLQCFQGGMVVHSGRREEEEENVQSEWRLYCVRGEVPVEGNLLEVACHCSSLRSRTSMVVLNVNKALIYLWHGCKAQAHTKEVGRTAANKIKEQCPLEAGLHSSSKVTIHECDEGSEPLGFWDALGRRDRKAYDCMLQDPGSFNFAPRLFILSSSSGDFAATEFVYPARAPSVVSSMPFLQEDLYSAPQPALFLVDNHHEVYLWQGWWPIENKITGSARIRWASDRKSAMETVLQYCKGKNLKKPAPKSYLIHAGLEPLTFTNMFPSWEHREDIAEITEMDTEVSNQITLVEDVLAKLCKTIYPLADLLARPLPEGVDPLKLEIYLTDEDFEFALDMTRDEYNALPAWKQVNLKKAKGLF

[6] = target: T6, EGFP-tagged human supervillin splice-form 4 (EGFP-hSV4) (Homo sapiens, UniProt O95425-4, strain); assay: immunostaining of cells or tissue; immunofluorescence, cells fixed with cold methanol; purified antibody 100 ug/ml; overexpressed tagged supervillins in RH30 cells; conditions: one partner purified
T6 construct: source: RH30 cells, transfected, fixed
T6 sequence (O95425 whole entry, looked up, stated change not applied, canonical isoform): as above

Row | binding result [1] | binding result [2] | binding result [3] | Kd [4] [nM] | koff [4] [s⁻¹] | kon [4] [M⁻¹ s⁻¹] | binding result [5] | binding result [6] | Binder
1 | binds | binds | binds |  |  |  |  |  | murine monoclonal antibody clone 2G3 (hybridoma supernatant) (antibody, V domains shown, HC variable region of clone 2G3, partial CDS; mouse IgG1 heavy chain constant region (isotype IgG1 by isotyping kit); LC variable region of clone 2G3, partial CDS; mouse light chain constant region; mouse IgG1; Group 1; source: mouse hybridoma supernatant (Precision Antibody, Inc.)) VH: QIQLQQSGPELVKPGASVKISCKASAYTFTDYYINWVKQRPGQGLEWIGWIYPGSGNTKYNEKFKGKATLTVDTSSSTAYMQLSSLTSEDSAVYFCATGPFGGFAYWGQGTLVTVSA VL: DIVMTQAAPSVPVTPGESVSISCRSSKSLLHSNGNTYLYWFLQRPGQSPQLLIYRMSNLASGVPDRFSGSGSGTAFALRISRVEAEDVGVYYCMQHLEYPLTFDAGTRLELK
2 |  |  |  | 4.21 | 0.000496 | 118000 | binds |  | chimeric (rabbit Fc) monoclonal antibody 1E2 (CPTC-SVIL-1) (antibody, V domains shown, HC variable region of clone 1E2 (as the heavy chain variable region of m4), partial CDS; LC variable region of clone 1E2 (as the light chain variable region of m4), partial CDS; mouse variable regions on rabbit IgG and rabbit kappa constant regions; Group 1; also called Rb 1E2; chimeric rabbit 1E2; source: HEK293, transient production, purified (protein A)) VH: QIQLQQSGPDLVKPGASVKISCKASGYTFTDYYINWVKQRPGQGLEWIGWIYPGSGNTKFNERFKDKATLTVDTSSSTAYMQLSSLTSEDSAVYFCASGPFGGFAHWGQGTLVTVSA VL: DIVMTQAAPSVPVTPGESVSISCRSSKSLLYSNGNTYLYWFLQRPGQSPQLLIYRMSNLASGVPDRFSGSGSGTAFTLKISRVEAEDVGVYYCMQHLEYPLTFGAGTKLELK
3 |  |  |  | 0.73 | 0.000296 | 407000 |  | binds | chimeric (rabbit Fc) monoclonal antibody 4A8 (CPTC-SVIL-2) (antibody, V domains shown, HC variable region of clone 4A8 (as the heavy chain variable region of m7), partial CDS; LC variable region of clone 4A8 (as the light chain variable region of m7), partial CDS; mouse variable regions on rabbit IgG and rabbit kappa constant regions; Group 2; also called Rb 4A8; chimeric rabbit 4A8; source: HEK293, transient production, purified (protein A)) VH: EVQLQQSGAELVRPGASVKLSCTASGFNIKDDHMHWVKQRPEQGLEWIGWIDPENGDTEYASKFQDKATITADTSSNTAYLQFSSLTSEDTAVYYCTTGEFDNWGQGTTLTVSS VL: DIVMTQAAPSIPVTPGQSVSISCRSSKSLLHSNGNTYLYWFLQRPGQSPQLLIYRMSNLASGVPDRFSGSGSATAFTLRISRVEAEDVGVYYCMQHLEYPFSFGAGTKLELK
